Experiments:
[1] = biological target: human prominin-1 expressed in E. coli as a 6*HIS fusion protein (human) (UniProt O43490); experiment: phage ELISA on plate-coated human prominin-1, HRP-conjugated anti-M13
[2] = biological target: human prominin-1 expressed in E. coli as a 6*HIS fusion protein (human) (UniProt O43490); experiment: ELISA on plate-coated human prominin-1, hybridoma secreted antibody diluted at 1:2000

Binder | A450 [1] | A450 [2]
scFv clone No. 5, displayed on phage (scFv) scFv: AQAAELDIVLTQSPAIMSASPGEKVTISCSASSSVSYMYWYQQKPGSSPKPWIYRTSNLASGVPARFSGSGSGTSYSLTISSMEAEDAATYYCQQYHSYPPTFGAGTKLELKSSGGGGSGGGGGGSSRSSLEVKLVESGPELKKPGETVKISCKASGYTFTDYSMHWVNQAPGKGLKWMGWINTETGEPSYADDFKGRFAFSLETSASTAYLQINNLKNEDTATYFCATDYGDYFDYWGQGTTLTVSSAKTTPPSVTSGQAGQ | 1.3 A450 | 
scFv clone No. 22, displayed on phage (scFv) scFv: AQAAELDIVLTQSPAIMSASPGEKVTISCSASSSVSYMYWYQQKPGSSPKPWIYRPSNLASGVPARFSGSGSGTSYSLTISSMEAEDAATYYCQQYHSYPPTFGAGTKLELKSSGDGGSGGGGGGSSRSSLEVKLVESGPELKKPGETVKISCKASGYTFTDYSMHWVNQAPGKGLKWMGWINTETGEPSYADDFKGRFAFSLETSASTAYLQINNLKNEDTATYFCATDYGDYFDYWGQGTTLTVSSAKTTAPSVTSGQAGQ | 1.2 A450 | 
scFv clone No. 6, displayed on phage (scFv) scFv: AQAAELDIVLTQSPAIMSASPGEKVTISCSASSSVSYMYWYQQKPGSSPKPWIYRPSNLASGVPARFSGSGSGTSYSLTISSMEAEDAATYYCQQYHSYPPTFGAGTKLELKSSGGGGSGGGGGGSSRSSPEVMLVESGPELKKPGETVKISCKASGYTFTDYSMHWVNQAPGKGLKWMGWINTETGEPSYADDFKGRFAFSLETSASTAYLQINNLKNEDTATYFCATDYGDYFDYWGQGTTLTVSSAKTTPPSVTSGQAGQ | 1.3 A450 | 
scFv clone No. 11, displayed on phage (scFv) scFv: AQAAELDIVLSQSPAIMSASPGEKVTISCSASSSVSYMYWYQQKPGSSPKPWIYRTSNLASGVPARFSGSGSGTSYSLTISSMEAEDAATYYCQQYHSYPPTFGAGTKLELKSSGGGGSGGGGGGSSRSSLEVKLVESGPELKKPGETVKISCKASGYTFTDYSMHWVNQAPGKGLKWMGWINTETGEPSYADDFKGRFAFSLETSASTAYLQINNLKNEDTATYFCATDYGDYFDYWGQGTTLTVSSAKTTPPSVTSGQAGQ | 1.4 A450 | 
scFv clone No. 23, displayed on phage (scFv) scFv: AQAAELDIVLTQSPAIMSASPGEKVTISCSASSSVSYMYWYQQKPGSSPKPWIYRPSNLASGVPARFSGSGSGTSYSLTISSMEAEDAATYYCQQYHSYPPTFGAGTKLELKSSGGGGSGGGGGGSSRSSLEVQLVESGPELKKPGETVKISCKASGYTFTDYSMHWVNQAPGKGLKWMGWINTETGEPSYADDFKGRFAFSLETSASTAYLQINNLKNEDTATYFCATDYGDYFDYWGQGTTLTVSSAKTTAPSVTSGQAGQ | 1.1 A450 | 
scFv clone No. 8, displayed on phage (scFv) scFv: AQAAELDIVLTQSPAIMSASPGEKVTISCSASSSVSYMYWYQQKPGSSPKPWIYRPSNLASGVPARFSGSGSGTSYSLTISSMEAEDAATYYCQQYHSYPPTFGAGTKLELKSSGGGGSGGGGGGSSRSSLEVHLVESGPELKKPGETVKISCKASGYTFTDYSMHWVNQAPGKGLKWMGWINTETGEPSYADDFKGRFAFSLETSASTAYLQINNLKNEDTATYFCATDYGDYFDYWGQGTTLTVSSAKTTPPSVTSGQAGQ | 1 A450 | 
scFv clone No. 10, displayed on phage (scFv) scFv: AQAAELDIVLSQSPAIMSASPGEKVTISCSASSSVSYMYWYQQKPGSPPKPWIYRTSNLASGVPARFSGSGSGTSYSLTISSMEAEDAATYYCQQYHSYPPTFGAGTKLELKSSGGGGSGGGGGGSSRSSLEVKLVESGPELKKPGETVKISCKASGYTFTDYSMHWVNQAPGKGLKWMGWINTETGEPSYADDFKGRFAFSLETSASTAYLQINNLKNEDTATYFCATDCGDYFDYWGQGTTLTVSSAKTTPPSVTSGQAGQ | 1.2 A450 | 
scFv clone No. 4, displayed on phage (scFv) scFv: AQAAELDIVLTQSPAIMSASPGEKVTISCSASSSVGYMYWYQQKPGSSPKPWIYRPSNLASGVPARFSGSGSGTSYSLTISSMEAEDAATYYCQQYHSYPPTFGAGTKLELKSSGGGGSGGGGGGSSRSSLEVKLVESGPELKKPGETVKISCKASGYTFTDYSMHWVNQAPGKGLKWMGWINTETGEPSYADDFKGRFAFSLETSASTAYLQINNLKNEDTATYFCATDYGDYFDYWGQGTTLTVSSAKTTPPSVTSGQ | 1 A450 | 
monoclonal antibody produced by Hybridoma Clone 7 (antibody, V domains shown) VH: EVKLVESGPELKKPGETVKISCKASGYTFTDYSMHWVNQAPGKGLKWMGWINTETGEPSYADDFKGRFAFSLETSASTAYLQINNLKNEDTATYFCATDYGDYFDYWGQGTTLTVSS VL: DIVLSQSPAIMSASPGEKVTISCSASSSVSYMYWYQQKPGSSPKPWIYRTSNLASGVPARFSGSGSGTSYSLTISSMEAEDAATYYCQQYHSYPPTFGAGTKLELK |  | 1.9 A450
scFv clone No. 7, displayed on phage (scFv) scFv: AQAAELDIVLTQSPAIMSASPGEKVTISCSASSSVSYMYWYQQKPGQPPRLLIYLVSNLESGVPARFSGSGSGTDFTLNIHPVEEEDAATYYCQQYHSYPPTFGAGTKLEIKSSGGGGSGGGGGGSSRSSLEVKLVESGPELKKPGETVKISCKASGYTFTDYSMHWVNQAPGKGLKWMGWINTETGEPSYADDFKGRFAFSLETSASTAYLQINNLKNEDTATYFCATDYGDYFDYWGQGTTLTVSSAKTTPPSVTSGQAGQ | 0.9 A450 | 

— patent publication US20130224202A1
